Test results taken from paper PMC9482650, “Quantitative fragmentomics allow affinity mapping of interactomes” (Nature Communications, 2022).

What was measured:
Assay in all cases: holdup assay
Set-up in all cases: key: below the threshold = too weak to quantify, mostly under pKd 3.1 to 4
DLG4_2, P78352 = target: DLG4_2, P78352
DLG4_3, P78352 = target: DLG4_3, P78352
DLG5_1, Q8TDM6 = target: DLG5_1, Q8TDM6
FRMPD2_1, Q68DX3 = target: FRMPD2_1, Q68DX3
FRMPD2_2, Q68DX3 = target: FRMPD2_2, Q68DX3
GRID2IP_1, A4D2P6 = target: GRID2IP_1, A4D2P6
GRID2IP_2, A4D2P6 = target: GRID2IP_2, A4D2P6
GRIP1_5, Q9Y3R0 = target: T1, GRIP1_5, Q9Y3R0
T1 sequence (Q9Y3R0 568-668, limits assumed, looked up): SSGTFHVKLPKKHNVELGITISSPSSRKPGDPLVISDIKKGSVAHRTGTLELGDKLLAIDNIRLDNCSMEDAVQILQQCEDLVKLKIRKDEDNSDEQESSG

IL16_1, Q14005 = target: IL16_1, Q14005
LDB3, O75112 = target: LDB3, O75112
LNX2_2, Q8N448 = target: T2, LNX2_2, Q8N448
T2 sequence (Q8N448 334-432, limits assumed, looked up): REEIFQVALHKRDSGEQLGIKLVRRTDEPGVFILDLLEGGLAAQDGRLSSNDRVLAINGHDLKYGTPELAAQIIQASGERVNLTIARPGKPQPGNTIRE

MAGI2_2, Q86UL8 = target: MAGI2_2, Q86UL8
MAGI2_3, Q86UL8 = target: MAGI2_3, Q86UL8
MAGI2_5, Q86UL8 = target: MAGI2_5, Q86UL8
MAGI3_2, Q5TCQ9 = target: MAGI3_2, Q5TCQ9
MPDZ_12, O75970 = target: T3, MPDZ_12, O75970
T3 sequence (O75970 1857-1958, limits assumed, looked up): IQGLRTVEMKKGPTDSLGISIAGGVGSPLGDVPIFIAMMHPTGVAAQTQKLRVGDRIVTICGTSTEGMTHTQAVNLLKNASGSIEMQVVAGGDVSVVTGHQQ

NHERF3_4, Q5T2W1 = target: T4, NHERF3_4, Q5T2W1
T4 sequence (Q5T2W1 373-468, limits assumed, looked up): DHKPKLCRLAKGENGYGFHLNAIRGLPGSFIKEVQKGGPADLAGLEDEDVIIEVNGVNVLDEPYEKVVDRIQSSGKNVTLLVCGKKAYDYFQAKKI

NOS1, P29475 = target: NOS1, P29475
PARD3_3, Q8TEW0 = target: PARD3_3, Q8TEW0
PDZRN3_1, Q9UPQ7 = target: T5, PDZRN3_1, Q9UPQ7
T5 sequence (Q9UPQ7 244-349, limits assumed, looked up): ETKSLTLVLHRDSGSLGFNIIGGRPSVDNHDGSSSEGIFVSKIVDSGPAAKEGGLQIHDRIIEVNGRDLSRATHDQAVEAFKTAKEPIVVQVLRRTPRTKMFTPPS

SCRIB_2, Q14160 = target: SCRIB_2, Q14160
SNTG1, Q9NSN8 = target: T6, SNTG1, Q9NSN8
T6 sequence (Q9NSN8 52-150, limits assumed, looked up): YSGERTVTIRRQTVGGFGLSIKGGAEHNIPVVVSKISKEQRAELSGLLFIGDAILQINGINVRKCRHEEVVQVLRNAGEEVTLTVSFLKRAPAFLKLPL

SNTG2, Q9NY99 = target: T7, SNTG2, Q9NY99
T7 sequence (Q9NY99 68-166, limits assumed, looked up): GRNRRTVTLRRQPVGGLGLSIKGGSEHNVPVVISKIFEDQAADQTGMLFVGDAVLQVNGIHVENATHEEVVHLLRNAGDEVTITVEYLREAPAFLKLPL

SNX27, Q96L92 = target: SNX27, Q96L92
SYNJ2BP, P57105 = target: T8, SYNJ2BP, P57105
T8 sequence (P57105 8-110, limits assumed, looked up): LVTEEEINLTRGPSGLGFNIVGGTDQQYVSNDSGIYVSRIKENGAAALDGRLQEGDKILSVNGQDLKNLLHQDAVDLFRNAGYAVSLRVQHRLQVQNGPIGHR

TIAM2, Q8IVF5 = target: T9, TIAM2, Q8IVF5
T9 sequence (Q8IVF5 885-986, limits assumed, looked up): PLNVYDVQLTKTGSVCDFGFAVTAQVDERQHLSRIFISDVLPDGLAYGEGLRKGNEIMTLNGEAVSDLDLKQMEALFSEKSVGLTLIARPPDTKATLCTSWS

TJP1_2, Q07157 = target: TJP1_2, Q07157
TX1BP3, O14907 = target: T10, TX1BP3, O14907
T10 sequence (O14907 10-122, limits assumed, looked up): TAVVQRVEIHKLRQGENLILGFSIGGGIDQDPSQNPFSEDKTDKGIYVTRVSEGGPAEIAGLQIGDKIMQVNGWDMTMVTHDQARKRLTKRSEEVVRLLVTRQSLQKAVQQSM

[1] = plain residues with an end cap or a label only (N-terminal biotin on a linker: ttds)
[2] = plain residues with an end cap or a label only (N-terminal biotin on a linker: none)

MAGI2_5, Q86UL8, sequence (Q86UL8 915-1017): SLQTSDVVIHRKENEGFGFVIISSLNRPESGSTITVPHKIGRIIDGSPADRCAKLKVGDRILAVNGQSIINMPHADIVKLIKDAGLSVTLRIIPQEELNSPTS
GRID2IP_1, A4D2P6, sequence (A4D2P6 1-87): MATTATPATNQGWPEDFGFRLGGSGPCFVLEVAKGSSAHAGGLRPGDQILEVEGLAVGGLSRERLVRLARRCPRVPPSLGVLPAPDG
FRMPD2_1, Q68DX3, sequence (Q68DX3 770-861): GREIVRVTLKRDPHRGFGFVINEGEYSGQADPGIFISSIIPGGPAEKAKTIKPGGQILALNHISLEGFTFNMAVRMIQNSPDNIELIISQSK
DLG4_3, P78352, sequence (P78352 306-403): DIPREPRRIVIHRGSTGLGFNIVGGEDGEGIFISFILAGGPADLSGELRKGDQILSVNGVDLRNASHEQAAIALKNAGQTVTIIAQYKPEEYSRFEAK
LDB3, O75112, sequence (O75112 1-94): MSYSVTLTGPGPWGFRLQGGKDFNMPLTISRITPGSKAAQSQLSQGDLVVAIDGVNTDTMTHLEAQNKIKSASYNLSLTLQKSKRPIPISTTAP
MAGI2_3, Q86UL8, sequence (Q86UL8 600-682): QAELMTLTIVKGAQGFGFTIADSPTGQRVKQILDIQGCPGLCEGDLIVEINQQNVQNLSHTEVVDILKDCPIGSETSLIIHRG
SCRIB_2, Q14160, sequence (Q14160 857-960): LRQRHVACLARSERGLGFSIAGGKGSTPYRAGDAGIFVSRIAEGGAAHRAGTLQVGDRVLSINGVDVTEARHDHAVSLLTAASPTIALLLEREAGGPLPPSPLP
MAGI3_2, Q5TCQ9, sequence (Q5TCQ9 398-503): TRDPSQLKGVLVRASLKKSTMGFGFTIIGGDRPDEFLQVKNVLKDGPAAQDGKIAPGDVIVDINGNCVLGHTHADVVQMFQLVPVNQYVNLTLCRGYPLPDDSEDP
TJP1_2, Q07157, sequence (Q07157 181-274): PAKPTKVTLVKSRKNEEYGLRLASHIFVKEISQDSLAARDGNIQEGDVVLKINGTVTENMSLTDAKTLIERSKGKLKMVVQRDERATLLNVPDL
MAGI2_2, Q86UL8, sequence (Q86UL8 410-522): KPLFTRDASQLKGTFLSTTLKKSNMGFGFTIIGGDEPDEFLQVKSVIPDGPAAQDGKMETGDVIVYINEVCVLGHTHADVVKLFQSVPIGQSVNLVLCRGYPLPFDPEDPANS
DLG4_2, P78352, sequence (P78352 155-259): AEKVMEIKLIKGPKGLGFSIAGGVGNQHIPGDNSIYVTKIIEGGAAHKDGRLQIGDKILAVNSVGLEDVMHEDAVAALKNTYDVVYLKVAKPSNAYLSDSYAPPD
DLG5_1, Q8TDM6, sequence (Q8TDM6 617-713): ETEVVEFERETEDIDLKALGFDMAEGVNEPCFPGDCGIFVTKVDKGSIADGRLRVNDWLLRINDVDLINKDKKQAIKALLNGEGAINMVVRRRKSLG
IL16_1, Q14005, sequence (Q14005 210-306): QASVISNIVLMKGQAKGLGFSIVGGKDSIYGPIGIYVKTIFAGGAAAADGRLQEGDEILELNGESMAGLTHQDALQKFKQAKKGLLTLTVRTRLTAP
PARD3_3, Q8TEW0, sequence (Q8TEW0 582-685): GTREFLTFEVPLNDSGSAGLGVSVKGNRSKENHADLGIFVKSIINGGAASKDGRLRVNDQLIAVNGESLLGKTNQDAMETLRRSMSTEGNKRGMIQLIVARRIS
FRMPD2_2, Q68DX3, sequence (Q68DX3 944-1038): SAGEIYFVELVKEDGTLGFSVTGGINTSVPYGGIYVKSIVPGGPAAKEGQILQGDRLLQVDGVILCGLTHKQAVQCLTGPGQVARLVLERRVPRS
GRID2IP_2, A4D2P6, sequence (A4D2P6 272-370): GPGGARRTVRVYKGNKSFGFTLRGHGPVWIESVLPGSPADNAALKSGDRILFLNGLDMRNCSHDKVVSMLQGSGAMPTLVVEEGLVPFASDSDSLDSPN
NOS1, P29475, sequence (P29475 9-101): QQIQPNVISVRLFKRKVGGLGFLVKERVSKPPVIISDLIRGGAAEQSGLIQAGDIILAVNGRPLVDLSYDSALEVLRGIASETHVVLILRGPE

VDFPPKESSL [ACVR2A, P27037]
pKd (DLG4_2, P78352; [1]): 3.33 | pKd (DLG4_3, P78352; [1]): 3.71 | pKd (DLG5_1, Q8TDM6; [1]): below the threshold | pKd (FRMPD2_1, Q68DX3; [1]): 3.82 | pKd (FRMPD2_2, Q68DX3; [1]): below the threshold | pKd (GRID2IP_1, A4D2P6; [1]): below the threshold | pKd (GRID2IP_2, A4D2P6; [1]): 3.48 | pKd (GRIP1_5, Q9Y3R0; [1]): below the threshold | pKd (IL16_1, Q14005; [1]): below the threshold | pKd (LDB3, O75112; [1]): below the threshold | pKd (LNX2_2, Q8N448; [1]): below the threshold | pKd (MAGI2_2, Q86UL8; [1]): 3.78 | pKd (MAGI2_3, Q86UL8; [1]): below the threshold | pKd (MAGI2_5, Q86UL8; [1]): below the threshold | pKd (MAGI3_2, Q5TCQ9; [1]): 3.3 | pKd (MPDZ_12, O75970; [1]): below the threshold | pKd (NHERF3_4, Q5T2W1; [1]): below the threshold | pKd (NOS1, P29475; [1]): below the threshold | pKd (PARD3_3, Q8TEW0; [1]): below the threshold | pKd (PDZRN3_1, Q9UPQ7; [1]): 4.76 | pKd (SCRIB_2, Q14160; [1]): 3.48 | pKd (SNTG1, Q9NSN8; [1]): 3.65 | pKd (SNTG2, Q9NY99; [1]): 4.11 | pKd (SNX27, Q96L92; [1]): 4.38 | pKd (SYNJ2BP, P57105; [1]): 4.53 | pKd (TIAM2, Q8IVF5; [1]): below the threshold | pKd (TJP1_2, Q07157; [1]): below the threshold | pKd (TX1BP3, O14907; [1]): 4.13

NLNSSRVPDLLV [SARS-CoV2-E, P0DTC4]
pKd (DLG4_2, P78352; [2]): below the threshold | pKd (DLG4_3, P78352; [2]): below the threshold | pKd (DLG5_1, Q8TDM6; [2]): below the threshold | pKd (FRMPD2_1, Q68DX3; [2]): below the threshold | pKd (FRMPD2_2, Q68DX3; [2]): below the threshold | pKd (GRID2IP_1, A4D2P6; [2]): below the threshold | pKd (GRID2IP_2, A4D2P6; [2]): below the threshold | pKd (GRIP1_5, Q9Y3R0; [2]): below the threshold | pKd (IL16_1, Q14005; [2]): below the threshold | pKd (LDB3, O75112; [2]): below the threshold | pKd (LNX2_2, Q8N448; [2]): 4.46 | pKd (MAGI2_2, Q86UL8; [2]): below the threshold | pKd (MAGI2_3, Q86UL8; [2]): below the threshold | pKd (MAGI2_5, Q86UL8; [2]): below the threshold | pKd (MAGI3_2, Q5TCQ9; [2]): below the threshold | pKd (MPDZ_12, O75970; [2]): below the threshold | pKd (NHERF3_4, Q5T2W1; [2]): below the threshold | pKd (NOS1, P29475; [2]): below the threshold | pKd (PARD3_3, Q8TEW0; [2]): 3.82 | pKd (PDZRN3_1, Q9UPQ7; [2]): below the threshold | pKd (SCRIB_2, Q14160; [2]): below the threshold | pKd (SNTG1, Q9NSN8; [2]): below the threshold | pKd (SNTG2, Q9NY99; [2]): below the threshold | pKd (SNX27, Q96L92; [2]): below the threshold | pKd (SYNJ2BP, P57105; [2]): below the threshold | pKd (TIAM2, Q8IVF5; [2]): below the threshold | pKd (TJP1_2, Q07157; [2]): 5.52 | pKd (TX1BP3, O14907; [2]): below the threshold
